Patent US7951595B2, “Methods for screening modulators of SLC17-type anion transport activity” (National University Corporation Okayama University, priority 2007, dated 2011)

B1: SLC17A9 protein: purified SLC17A9 membrane protein, vesicular nucleotide transporter (protein, UniProt Q9BYT1 1-436, looked up)
Voltage-gated purine …: MQPPPDEARRDMAGDTQWSRPECQAWTGTLLLGTCLLYCARSSMPICTVSMSQDFGWNKKEAGIVLSSFFWGYCLTQVVGGHLGDRIGGEKVILLSASAWGSITAVTPLLAHLSSAHLAFMTFSRILMGLLQGVYFPALTSLLSQKVRESERAFTYSIVGAGSQFGTLLTGAVGSLLLEWYGWQSIFYFSGGLTLLWVWYVYRYLLSEKDLILALGVLAQSRPVSRHNRVPWRRLFRKPAVWAAVVSQLSAACSFFILLSWLPTFFEETFPDAKGWIFNVVPWLVAIPASLFSGFLSDHLINQGYRAITVRKLMQGMGLGLSSVFALCLGHTSSFCESVVFASASIGLQTFNHSGISVNIQDLAPSCAGFLFGVANTAGALAGVVGVCLGGYLMETTGSWTCLFNLVAIISNLGLCTFLVFGQAQRVDLSSTHEDL
B2: VGLUT3: SLC17 family transporter protein, gene SLC17A8 (protein, UniProt Q8NDX2 1-589, looked up)
Vesicular glutamate …: MPFKAFDTFKEKILKPGKEGVKNAVGDSLGILQRKIDGTTEEEDNIELNEEGRPVQTSRPSPPLCDCHCCGLPKRYIIAIMSGLGFCISFGIRCNLGVAIVEMVNNSTVYVDGKPEIQTAQFNWDPETVGLIHGSFFWGYIMTQIPGGFISNKFAANRVFGAAIFLTSTLNMFIPSAARVHYGCVMCVRILQGLVEGVTYPACHGMWSKWAPPLERSRLATTSFCGSYAGAVVAMPLAGVLVQYIGWSSVFYIYGMFGIIWYMFWLLQAYECPAAHPTISNEEKTYIETSIGEGANVVSLSKFSTPWKRFFTSLPVYAIIVANFCRSWTFYLLLISQPAYFEEVFGFAISKVGLLSAVPHMVMTIVVPIGGQLADYLRSRQILTTTAVRKIMNCGGFGMEATLLLVVGFSHTKGVAISFLVLAVGFSGFAISGFNVNHLDIAPRYASILMGISNGVGTLSGMVCPLIVGAMTRHKTREEWQNVFLIAALVHYSGVIFYGVFASGEKQEWADPENLSEEKCGIIDQDELAEEIELNHESFASPKKKMSYGATSQNCEVQKKEWKGQRGATLDEEELTSYQNEERNFSTIS
B3: Sialin: SLC17 family transporter protein, gene SLC17A5 (protein, UniProt Q9NRA2 1-495, looked up)
Sialin: MRSPVRDLARNDGEESTDRTPLLPGAPRAEAAPVCCSARYNLAILAFFGFFIVYALRVNLSVALVDMVDSNTTLEDNRTSKACPEHSAPIKVHHNQTGKKYQWDAETQGWILGSFFYGYIITQIPGGYVASKIGGKMLLGFGILGTAVLTLFTPIAADLGVGPLIVLRALEGLGEGVTFPAMHAMWSSWAPPLERSKLLSISYAGAQLGTVISLPLSGIICYYMNWTYVFYFFGTIGIFWFLLWIWLVSDTPQKHKRISHYEKEYILSSLRNQLSSQKSVPWVPILKSLPLWAIVVAHFSYNWTFYTLLTLLPTYMKEILRFNVQENGFLSSLPYLGSWLCMILSGQAADNLRAKWNFSTLCVRRIFSLIGMIGPAVFLVAAGFIGCDYSLAVAFLTISTTLGGFCSSGFSINHLDIAPSYAGILLGITNTFATIPGMVGPVIAKSLTPDNTVGEWQTVFYIAAAINVFGAIFFTLFAKGEVQNWALNDHHGHRH
B4: NPT1: SLC17 family transporter protein, gene SLC17A1 (protein, UniProt Q14916 1-467, looked up)
Sodium-dependent phosphate …: MQMDNRLPPKKVPGFCSFRYGLSFLVHCCNVIITAQRACLNLTMVVMVNSTDPHGLPNTSTKKLLDNIKNPMYNWSPDIQGIILSSTSYGVIIIQVPVGYFSGIYSTKKMIGFALCLSSVLSLLIPPAAGIGVAWVVVCRAVQGAAQGIVATAQFEIYVKWAPPLERGRLTSMSTSGFLLGPFIVLLVTGVICESLGWPMVFYIFGACGCAVCLLWFVLFYDDPKDHPCISISEKEYITSSLVQQVSSSRQSLPIKAILKSLPVWAISTGSFTFFWSHNIMTLYTPMFINSMLHVNIKENGFLSSLPYLFAWICGNLAGQLSDFFLTRNILSVIAVRKLFTAAGFLLPAIFGVCLPYLSSTFYSIVIFLILAGATGSFCLGGVFINGLDIAPRYFGFIKACSTLTGMIGGLIASTLTGLILKQDPESAWFKTFILMAAINVTGLIFYLIVATAEIQDWAKEKQHTRL
B5: VGLUT2: SLC17 family transporter protein, gene SLC17A6 (protein, UniProt Q9P2U8 1-582, looked up)
Vesicular glutamate …: MESVKQRILAPGKEGLKNFAGKSLGQIYRVLEKKQDTGETIELTEDGKPLEVPERKAPLCDCTCFGLPRRYIIAIMSGLGFCISFGIRCNLGVAIVDMVNNSTIHRGGKVIKEKAKFNWDPETVGMIHGSFFWGYIITQIPGGYIASRLAANRVFGAAILLTSTLNMLIPSAARVHYGCVIFVRILQGLVEGVTYPACHGIWSKWAPPLERSRLATTSFCGSYAGAVIAMPLAGILVQYTGWSSVFYVYGSFGMVWYMFWLLVSYESPAKHPTITDEERRYIEESIGESANLLGAMEKFKTPWRKFFTSMPVYAIIVANFCRSWTFYLLLISQPAYFEEVFGFEISKVGMLSAVPHLVMTIIVPIGGQIADFLRSKQILSTTTVRKIMNCGGFGMEATLLLVVGYSHTRGVAISFLVLAVGFSGFAISGFNVNHLDIAPRYASILMGISNGVGTLSGMVCPIIVGAMTKNKSREEWQYVFLIAALVHYGGVIFYAIFASGEKQPWADPEETSEEKCGFIHEDELDEETGDITQNYINYGTTKSYGATTQANGGWPSGWEKKEEFVQGEVQDSHSYKDRVDYS
B6: VGLUT1: SLC17 family transporter protein, gene SLC17A7 (protein, UniProt Q9P2U7 1-560, looked up)
Vesicular glutamate …: MEFRQEEFRKLAGRALGKLHRLLEKRQEGAETLELSADGRPVTTQTRDPPVVDCTCFGLPRRYIIAIMSGLGFCISFGIRCNLGVAIVSMVNNSTTHRGGHVVVQKAQFSWDPETVGLIHGSFFWGYIVTQIPGGFICQKFAANRVFGFAIVATSTLNMLIPSAARVHYGCVIFVRILQGLVEGVTYPACHGIWSKWAPPLERSRLATTAFCGSYAGAVVAMPLAGVLVQYSGWSSVFYVYGSFGIFWYLFWLLVSYESPALHPSISEEERKYIEDAIGESAKLMNPLTKFSTPWRRFFTSMPVYAIIVANFCRSWTFYLLLISQPAYFEEVFGFEISKVGLVSALPHLVMTIIVPIGGQIADFLRSRRIMSTTNVRKLMNCGGFGMEATLLLVVGYSHSKGVAISFLVLAVGFSGFAISGFNVNHLDIAPRYASILMGISNGVGTLSGMVCPIIVGAMTKHKTREEWQYVFLIASLVHYGGVIFYGVFASGEKQPWAEPEEMSEEKCGFVGHDQLAGSDDSEMEDEAEPPGAPPAPPPSYGATHSTFQPPRPPPPVRDY

Key:
human SLC17A9 = target: T1, human SLC17A9 (Homo sapiens, UniProt Q9BYT1, N228S); test: Nucleotide transport by human SLC17A9 reconstituted proteoliposomes (valinomycin-induced membrane potential, radiolabelled substrate); assay type: biochemical
T1 construct: His6 (from pDEST10 vector); made in house; host or cells: insect cells, baculovirus system (Sf9 named for virus production)
T1 sequence (Q9BYT1 1-430 isoform Q9BYT1-2 N222S): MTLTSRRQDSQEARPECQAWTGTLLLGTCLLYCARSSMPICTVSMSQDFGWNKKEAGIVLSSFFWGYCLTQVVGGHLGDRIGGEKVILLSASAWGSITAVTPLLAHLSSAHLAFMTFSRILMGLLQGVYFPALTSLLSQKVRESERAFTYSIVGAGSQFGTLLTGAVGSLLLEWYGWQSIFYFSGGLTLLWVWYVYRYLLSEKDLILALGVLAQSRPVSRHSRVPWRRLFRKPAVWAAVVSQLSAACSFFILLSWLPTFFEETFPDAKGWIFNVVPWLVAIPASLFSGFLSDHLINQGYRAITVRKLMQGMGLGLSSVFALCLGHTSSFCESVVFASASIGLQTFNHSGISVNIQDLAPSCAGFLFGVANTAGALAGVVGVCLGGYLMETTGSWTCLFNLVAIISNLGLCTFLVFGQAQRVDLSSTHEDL
Method: (§1) 10 μg of purified SLC17A9 and 0.5 mg of soybean-derived lipids were mixed and incubated at −80° C. for 5 minutes or more. The mixture was thawed quickly by holding the tube in the hands, and was diluted 60-fold with a buffer solution containing 20 mM MOPS-Tris (pH 7.0), 0.15M sodium acetate, 2 mM magnesium acetate and 0.5 mM DTT. This dilution was centrifuged at 200,000×g at 4° C. for one hour, the supernatant was discarded, and the precipitate was resuspended in a buffer solution containing 20 mM MOPS-Tris (pH 7.0), 0.15M sodium acetate, 2 mM magnesium acetate and 0.5 mM DTT, to obtain SLC17A9 reconstituted proteoliposomes. As a control, liposomes without SLC17A9 were used.
The nucleotide transport activity was measured by the following procedure. The reconstituted proteoliposomes were incubated in a buffer solution containing 20 mM MOPS-Tris (pH 7.0), 0.15M potassium acetate, 2 mM magnesium acetate and 4 mM potassium chloride, at 27° C. for 2 minutes, and valinomycin was added thereto to a final concentration of 2 μM. The mixture was incubated for further 2 minutes. The point of addition of 0.1 mM [α-^32P]ATP (3.7 GBq/mmol) was defined as the initiation of activity measurement. At a predetermined time point, 130 μL of the reaction liquid was recovered and centrifuged through a Sephadex G-50 (fine) spin column at 760×g for 2 minutes. The uptake of ATP was measured by measuring the radioactivity included in the reaction liquid that had passed through the column using a liquid scintillation counter. In the measurement of the transport activity for ADP and GTP, [2,8-^3H]ADP (0.37 GBq/mmol) and [α-^32P]GTP (3.7 GBq/mmol) were used instead of ATP as the substrate.
In an experiment for an inhibitor, a predetermined concentration of an inhibitor was added upon incubation of the proteoliposomes.

[1] = system: SLC17 family transporter proteins; test: ATP uptake by other SLC17 family proteins reconstituted like SLC17A9; assay type: biochemical; conditions: 0.1 mM [α-32P]ATP, uptake after 2 minutes, relative to SLC17A9 protein
Method: as §1
The nucleotide transport activity was measured by the following procedure. The reconstituted proteoliposomes were incubated in a buffer solution containing 20 mM MOPS-Tris (pH 7.0), 0.15M potassium acetate, 2 mM magnesium acetate and 4 mM potassium chloride, at 27° C. for 2 minutes, and valinomycin was added thereto to a final concentration of 2 μM. The mixture was incubated for further 2 minutes. […] At a predetermined time point, 130 μL of the reaction liquid was recovered and centrifuged through a Sephadex G-50 (fine) spin column at 760×g for 2 minutes.
Each of the transporter proteins that belong to the SLC17 family was purified in the same manner as in the case of SLC17A9, and was reconstituted according to the technique of Example 11.

Molecule | ATP Transport (%) [1] | also measured
Cl [chloride ions] | – | chloride ion concentration at which ATP uptake activity reached a steady state (human SLC17A9; chloride ions at various concentrations, FIG. 14): 4 mM
C=C1[C@@H]2CC[C@H]3[C@]4(C)C[C@H](O[C@@H]5O[C@H](CO)[C@@H](OS(=O)(=O)O)[C@H](OS(=O)(=O)O)[C@H]5OC(=O)CC(C)C)C[C@@H](C(=O)O)[C@H]4CC[C@]3(C2)[C@H]1O [atractyloside] | – | effect of addition on the ATP uptake (human SLC17A9; atractyloside 200 μM, with or without Mg2+, FIG. 17(C)): Only when Mg^2+ was present, the ATP uptake was inhibited
Cc1cc(-c2ccc(/N=N/c3ccc4c(S(=O)(=O)O)cc(S(=O)(=O)O)c(N)c4c3O)c(C)c2)ccc1/N=N/c1ccc2c(S(=O)(=O)O)cc(S(=O)(=O)O)c(N)c2c1O [Evans Blue] | – | IC50 (human SLC17A9; SLC17A9 reconstituted proteoliposomes, FIG. 17B): 40 nM
CC(C)[C@@H]1NC(=O)[C@H](C)OC(=O)[C@@H](C(C)C)NC(=O)[C@@H](C(C)C)OC(=O)[C@H](C(C)C)NC(=O)[C@H](C)OC(=O)[C@@H](C(C)C)NC(=O)[C@@H](C(C)C)OC(=O)[C@H](C(C)C)NC(=O)[C@H](C)OC(=O)[C@@H](C(C)C)NC(=O)[C@@H](C(C)C)OC1=O [valinomycin] | – | effect on uptake of radioactive ATP (human SLC17A9; ATP 100 μM, valinomycin 2 μM, FIG. 13(B)): activated
B1 | 100.0% | –
B2 | 7.1 ± 2.1% | –
B3 | 2.1 ± 0.8% | –
B4 | 2.0 ± 1.1% | –
B5 | 0.1 ± 0.2% | –
B6 | 1.7 ± 0.7% | –
